Laboratory results taken from PMC8844825 (iScience, 2022).

T1: myc-WT CARD11-FLAGx2 (murine, UniProt Q8CIS0 1-1159)
T1 sequence (looked up): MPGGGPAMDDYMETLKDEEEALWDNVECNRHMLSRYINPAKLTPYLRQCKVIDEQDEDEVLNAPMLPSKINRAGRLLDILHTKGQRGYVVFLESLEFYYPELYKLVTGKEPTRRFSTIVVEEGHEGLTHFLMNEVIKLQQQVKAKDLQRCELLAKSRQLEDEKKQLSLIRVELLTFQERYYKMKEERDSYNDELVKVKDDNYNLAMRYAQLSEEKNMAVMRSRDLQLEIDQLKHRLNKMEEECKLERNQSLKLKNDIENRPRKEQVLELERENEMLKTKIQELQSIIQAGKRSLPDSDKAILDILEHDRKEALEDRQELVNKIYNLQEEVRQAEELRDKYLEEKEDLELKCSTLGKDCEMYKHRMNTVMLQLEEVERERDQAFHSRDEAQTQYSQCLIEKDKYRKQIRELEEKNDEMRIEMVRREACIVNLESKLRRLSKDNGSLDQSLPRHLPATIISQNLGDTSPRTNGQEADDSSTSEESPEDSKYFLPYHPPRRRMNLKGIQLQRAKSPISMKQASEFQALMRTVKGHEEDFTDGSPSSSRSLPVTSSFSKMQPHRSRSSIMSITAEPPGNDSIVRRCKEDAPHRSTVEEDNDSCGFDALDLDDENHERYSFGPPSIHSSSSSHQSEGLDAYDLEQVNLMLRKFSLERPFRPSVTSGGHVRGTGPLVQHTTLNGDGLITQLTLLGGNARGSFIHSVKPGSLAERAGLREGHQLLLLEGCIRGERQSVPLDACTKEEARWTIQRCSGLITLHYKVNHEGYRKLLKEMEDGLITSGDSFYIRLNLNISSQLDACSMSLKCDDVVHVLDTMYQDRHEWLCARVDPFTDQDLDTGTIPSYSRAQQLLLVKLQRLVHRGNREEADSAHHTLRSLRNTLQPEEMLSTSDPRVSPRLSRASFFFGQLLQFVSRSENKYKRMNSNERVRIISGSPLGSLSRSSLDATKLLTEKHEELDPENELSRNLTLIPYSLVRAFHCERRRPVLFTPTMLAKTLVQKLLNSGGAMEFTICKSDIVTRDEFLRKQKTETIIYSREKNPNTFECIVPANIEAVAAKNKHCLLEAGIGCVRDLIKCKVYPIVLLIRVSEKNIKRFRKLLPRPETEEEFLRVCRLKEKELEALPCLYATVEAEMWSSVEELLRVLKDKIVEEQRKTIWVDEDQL


Target: T1, myc-WT CARD11-FLAGx2
Assay: co-IP

Row | Binder | relative inducible binding (bound/input, normalised to WT)
1 | HOIP (endogenous, Jurkat T cells) (natural protein, human (endogenous in Jurkat), UniProt Q96EP0 1-1072, looked up) MPGEEEERAFLVAREELASALRRDSGQAFSLEQLRPLLASSLPLAARYLQLDAARLVRCNAHGEPRNYLNTLSTALNILEKYGRNLLSPQRPRYWRGVKFNNPVFRSTVDAVQGGRDVLRLYGYTEEQPDGLSFPEGQEEPDEHQVATVTLEVLLLRTELSLLLQNTHPRQQALEQLLEDKVEDDMLQLSEFDPLLREIAPGPLTTPSVPGSTPGPCFLCGSAPGTLHCPSCKQALCPACDHLFHGHPSRAHHLRQTLPGVLQGTHLSPSLPASAQPRPQSTSLLALGDSSLSSPNPASAHLPWHCAACAMLNEPWAVLCVACDRPRGCKGLGLGTEGPQGTGGLEPDLARGRWACQSCTFENEAAAVLCSICERPRLAQPPSLVVDSRDAGICLQPLQQGDALLASAQSQVWYCIHCTFCNSSPGWVCVMCNRTSSPIPAQHAPRPYASSLEKGPPKPGPPRRLSAPLPSSCGDPEKQRQDKMREEGLQLVSMIREGEAAGACPEEIFSALQYSGTEVPLQWLRSELPYVLEMVAELAGQQDPGLGAFSCQEARRAWLDRHGNLDEAVEECVRTRRRKVQELQSLGFGPEEGSLQALFQHGGDVSRALTELQRQRLEPFRQRLWDSGPEPTPSWDGPDKQSLVRRLLAVYALPSWGRAELALSLLQETPRNYELGDVVEAVRHSQDRAFLRRLLAQECAVCGWALPHNRMQALTSCECTICPDCFRQHFTIALKEKHITDMVCPACGRPDLTDDTQLLSYFSTLDIQLRESLEPDAYALFHKKLTEGVLMRDPKFLWCAQCSFGFIYEREQLEATCPQCHQTFCVRCKRQWEEQHRGRSCEDFQNWKRMNDPEYQAQGLAMYLQENGIDCPKCKFSYALARGGCMHFHCTQCRHQFCSGCYNAFYAKNKCPEPNCRVKKSLHGHHPRDCLFYLRDWTALRLQKLLQDNNVMFNTEPPAGARAVPGGGCRVIEQKEVPNGLRDEACGKETPAGYAGLCQAHYKEYLVSLINAHSLDPATLYEVEELETATERYLHVRPQPLAGEDPPAYQARLLQKLTEEVPLGQSIPRRRK | 1 relative to WT
2 | Bcl10 (endogenous, Jurkat T cells) (natural protein, human (endogenous in Jurkat), UniProt O95999 1-233, looked up) MEPTAPSLTEEDLTEVKKDALENLRVYLCEKIIAERHFDHLRAKKILSREDTEEISCRTSSRKRAGKLLDYLQENPKGLDTLVESIRREKTQNFLIQKITDEVLKLRNIKLEHLKGLKCSSCEPFPDGATNNLSRSNSDESNFSEKLRASTVMYHPEGESSTTPFFSTNSSLNLPVLEVGRTENTIFSSTTLPRPGDPGAPPLPPDLQLEEEGTCANSSEMFLPLRSRTVSRQ | 1 relative to WT
